assay: yeast display, Sf9 membrane polyspecificity reagent, FACS + sequencing; frameworks hold sequencing errors
Summary of the method: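 Synthetic nanobody libraries on Saccharomyces cerevisiae BJ5465 were galactose-induced for 36–48 hours, stained 1 hour at 4 °C with 10% biotinylated, detergent-solubilized Sf9 membrane reagent and enriched on streptavidin microbeads. FACS then separated cells into low and high (top ~1%) gates by anti-HA (expression) and streptavidin (reagent binding) fluorescence. Genes were colony-PCR amplified, MiSeq 2 × 250 sequenced and CDR-length filtered. A clone's polyreactivity label is that of its gate of origin.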

Q: With “QVQLVESGGGLLQAGGSLRLSCAASGRTFHTYAMGWYRHAPGKERELVAAISRSGGSTYYADSVKGRFTISRDNAMNPVYLQMNSLKPEDTAVYYCADTAGYWGQGTQVTVSS” as the sequence, how does the “polyreactivity (PSR sort gate)” value read?
A: high polyreactivity

Q: Which “polyreactivity (PSR sort gate)” value does the source give for “QVQLVESGGGLLQAGGSLRLSCAASGRTFKYYAMGWYRQAPGKERELVAAISHSGGSTYYADSVKGRFTISRDNAKNTVYLQMNSLKPEDTAVYYCAADHGDGNYPYYYWGQGTQVTVSS” here?
A: high polyreactivity

Q: Which “polyreactivity (PSR sort gate)” value does the source give for “QVQLVESGGGLLQAGGSLRLSCAASGRTFYQYAMGWYRKAPGKDRELVAAITTSGRSTYYADSVKGRITISRDNAKNTVYLQMNRLKPEDTAVYYCNKDLSSTIFDYWGQGTQVTVSS” here?
A: low polyreactivity

Q: For “QVQLVESGGGLLQAGGSLRLSCAASGRTIDVYAMGWYTQAPGKERELVAAISWSGGGTYYADSVKGRFTISRDNAKNTVYFQMHSLKAEDTAVYYCAAALTFALDPNRYTYSDYYYWGQGTQVTVSS”, which “polyreactivity (PSR sort gate)” value is on record?
A: low polyreactivity

Q: With “QVQLVESGGGLLQAGGSLRLSCAASGRTLWIYAMGWYRQAPGKERELVASITTRGGSTYYADSVKGRFTISRDNAKNTVYLQMNSLKPEDTAVYYCARVSGARYTSYDYWGQGTQVTVSS” as the sequence, how does the “polyreactivity (PSR sort gate)” value read?
A: high polyreactivity

Q: With “QVQLVESGGGLLQAGGSLRLSCAASGSIFNKYAMGWYRQATGKEREFVAAITQGGGRTYYADSEKVRFTISRDNAKNTDYLQMNILKPEDTAVYYCNYNFNYPYYRYGYWGQGTQVTVSS” as the sequence, how does the “polyreactivity (PSR sort gate)” value read?
A: high polyreactivity

Q: With “QVQLVESGGGLLQAGGSLRLSCAASGSIFNYSAMGWYRQAPGTERELVATISSGGNTKYADSVKGRFTISRDNAKNTVYLQMNSLKPEDTAVYYCAARWQHSGYRDRYWYDYWGQGTQVTVSS” as the sequence, how does the “polyreactivity (PSR sort gate)” value read?
A: low polyreactivity

Q: For “QVQLVESGGGLLQAGGSLRLSCAASGSIFQYNAMGWYRQAPGKERELVAAINGGGSTYYADSVKGRFTISRDNAKNTVYLQMNSLKPEDTAVYYCAADGGAYSYRGPGKFGIEDSWGQGTQVTVSS”, which “polyreactivity (PSR sort gate)” value is on record?
A: low polyreactivity

Q: Which “polyreactivity (PSR sort gate)” value does the source give for “QVQLVESGGGLLQAGGSLRLSCAASGSIFRRNAMGWYRQAPGTERELVACISGGGSTYYADSVKGRFTKSRDNAKNNVYLQLNSLNPEDTAVYYCATDKHYRWAVFDYWGQGTQVTVSS” here?
A: low polyreactivity

Q: With “QVQLVESGGGLLQAGGSLRLSCAASGSIFSRYAMGWYRQAPGKERELVAAISKSGTRTYYADSVKGRFTISRDNAKNTVYLQMNSLKPEDTAVYYCNADSEISWYYPYEYWGQGTQVTVSS” as the sequence, how does the “polyreactivity (PSR sort gate)” value read?
A: high polyreactivity

Q: For “QVQLVESGGGLLQAGGSLRLSCAASGSTFPPYAMGWYRQAPGKERELVAAIDWSDGTTYYADSVKGRFTISRDNAKNTVYLQMNSLKPEDTAVYYCAASLSQSEYDYWGQGTQVTVSS”, which “polyreactivity (PSR sort gate)” value is on record?
A: low polyreactivity

Q: For “QVQLVESGGGLLQAGGSLRLSCAASGSTFRIYAMGWYRQAPGKERELVAAIRRRGASTYYADSVKGRFTISRDNAKNTVYLQMNSLKQEDTAVYYCAASYLWDRVPGRGIHDYWGQGTQVTVSS”, which “polyreactivity (PSR sort gate)” value is on record?
A: high polyreactivity

Q: With “QVQLVESGGGLLQAGGSLRLSCAASGSTISRYAMGWYRQAPGKERELVAAIRRNGDGTYYADSVKGRFTISRDNAKNTVYVQMNSLKPEDTAVYYCAARRFIPRFNYWGQGTQVTVSS” as the sequence, how does the “polyreactivity (PSR sort gate)” value read?
A: high polyreactivity

Q: Which “polyreactivity (PSR sort gate)” value does the source give for “QVQLVESGGGLLQAGGSLRLSCAASGTIFKYYAMGWYRQAPGKERELVAAISRSGSNTYYADSVKGRFRISRDNAKNTVYLQMNTLKPEDTAVYYFAARARRYIYTFDSWGQGTQVTVSS” here?
A: high polyreactivity

Q: With “QVQLVESGGGLLQAGGSLRLSCAASRSTFFWYAMGWYRQAPGKERELVAANSKTGGSTYYADSVKGRFTISRDNAKNTVYLQMNSLKPEDTAVYYCARDYSWYYYGSQLFAHDYWGQGTQVTVSS” as the sequence, how does the “polyreactivity (PSR sort gate)” value read?
A: low polyreactivity

Q: For “QVQLVESGGGLLQAGGSLRLSCAASVRIFYGYAMGWYRPAPGKERELVAAIDSVGDTYYADSVKGRFTISRDNAKNTVYLQMNSLNPEDTAVYYCAADRTGGIVLSPTDEMDYWGQGTQVTVSS”, which “polyreactivity (PSR sort gate)” value is on record?
A: low polyreactivity

Q: With “QVQLVESGGGLLQAGGSLRLSCAASVRIFYGYAMGWYRQAPGKERELVAAIDSVGDKYYADSVKGRFTISRDNAKNTVYLQMNSLNPEDTAVYSCAADRTGRIVLSPTDEMDYWGQGTQVSVSS” as the sequence, how does the “polyreactivity (PSR sort gate)” value read?
A: low polyreactivity

Q: Which “polyreactivity (PSR sort gate)” value does the source give for “QVQLVESGGGLLQAGGSLRLSCADSGSTFLYKAMGCYIQAPGKEREFVAAISGSGGTTYYADSVKGRFTISRDNAKNTVYLQMNSLKPEDTAVYYCAVSQSWYWYYASDYWGQGTQVTVSS” here?
A: low polyreactivity

Q: With “QVQLVESGGGLLQAGGSLRLSCASSGRTFLVNAMGWYRQAPGKERELVAVITRVGSTNYADSVKGRFTISRDNAKNTVYLQMYSLKPEDTAVYYCAKQFSPYRSYGPVVRYDYWGQGTQLTVSS” as the sequence, how does the “polyreactivity (PSR sort gate)” value read?
A: low polyreactivity

Q: Which “polyreactivity (PSR sort gate)” value does the source give for “QVQLVESGGGLLQAGGSLRLSCDASGRIFGPNARGWYRQAPGKERELVDSISYSGGYTYYADSVKGRFTISRDNAKITFYLQMLSLIPVDTAVYYCAKGGYWSGYNYWGHGTQVTVSS” here?
A: low polyreactivity

Q: With “QVQLVESGGGLLQAGGSLRLSSAASGFIFTKYNMGWYRQAPGKERELVDAIDTGGNTYADSVKGRFTISRDNAKNTVYLQMNSLKPEDTAVYYCSVDGGEFSSYGYWGQGTQVTVSS” as the sequence, how does the “polyreactivity (PSR sort gate)” value read?
A: low polyreactivity

Q: With “QVQLVESGGGLLQAGGSLRLSSAASGGTFPKYTKGWYRPAPGKEWELVAAITSRGGTYYADSVKGRFTISRDNAKNSVYLQMNSLKPEDTAVYYCAAEYSYSSYLWYDYWGQGTQVTVSS” as the sequence, how does the “polyreactivity (PSR sort gate)” value read?
A: high polyreactivity

Q: For “QVQLVESGGGLLQAGGSLRLSSAASGRTFPRYAMGWYRQAPGKERELVAAISVRAGITYYADSVKGRFTISRDNAKNTVYLQMNSLKPEDTAVYYCAKDHWTTSYDEGDYWGQGTQVTVSS”, which “polyreactivity (PSR sort gate)” value is on record?
A: low polyreactivity

Q: Which “polyreactivity (PSR sort gate)” value does the source give for “QVQLVESGGGLLQAGGSLSLSCAASGGTFRYYTMGWYRQAPGKERELVASISGGGRTYYADSVKGRFTISRDNAKNTVYLQMNSLKPEDTAVYYCATYTRTFGYWGYGYWGQGTQVTVSS” here?
A: high polyreactivity

Q: Which “polyreactivity (PSR sort gate)” value does the source give for “QVQLVESGGGLLQAGGSLSLSCAASGLILANYAMGWYRQAPGKERELVAAISSSGGSTYYADSVKGRFTISRDNAKNTVYLQMNSLKPEDTAVYYCAAYPLYRRRWTGDYWGQGTQVTVSS” here?
A: high polyreactivity

Q: Which “polyreactivity (PSR sort gate)” value does the source give for “QVQLVESGGGLLQAGGSLSLSCAASGSIFVTNAMGWYRQAPGKERELVAAISVSGGSTYYADSVKGRFTISRDNAKYTVYLQMNSLKPEDTAVYYCNTVRSPPGHDYWGQGTQVTLSS” here?
A: low polyreactivity

Q: For “QVQLVESGGGLLQAGGTLRLSCAASGFIFGRYAMGWYRQAPGKERELVADISWNGGSTYYADYVKGRFTISRDNAKNTVYLQMNSLKPEDTAVYYCAADYYWASFKYPYLRPYDYWGQGTQVTVSS”, which “polyreactivity (PSR sort gate)” value is on record?
A: high polyreactivity

Q: With “QVQLVESGGGLLQAGVSLRLSCAASGFIFSYNTMGWYRQPPGKEREFVAAITYSGGSTYYADSVKWRFTSSRHNAKNSVYLQMNTLKPEDTAVYYCAAPYPRGYFFGDSPKGYGGGYWGQGTQVTVSS” as the sequence, how does the “polyreactivity (PSR sort gate)” value read?
A: high polyreactivity

Q: With “QVQLVESGGGLVEAGGRLSLSCAASGSIFHRNAMGGFRQAPGTERELVAAITYSGGGTYYADSVKGRFTISRDNAKNTVYLQMNSLKPEDTAVYYCAADYKSKYSRYIYDYWGQGPQVTVSS” as the sequence, how does the “polyreactivity (PSR sort gate)” value read?
A: low polyreactivity

Q: Which “polyreactivity (PSR sort gate)” value does the source give for “QVQLVESGGGLVEAGGSLRLICAASGSTFGWYAMGWSRQAPGKEREFVAAISWSGTSTYYADSVKGRFTISRDNAKNTVYLQMNSLKPEDTAVYYCNARSKRANRSLGLGYWGQGTQVTVSS” here?
A: low polyreactivity

Q: Which “polyreactivity (PSR sort gate)” value does the source give for “QVQLVESGGGLVEAGGSLRLSCAASGFTFGYYAMGWYRPAPGKERELVAAITNGGRTNYAYSVKGRFTISRDNAKNTVYLQMNSLKPEDTAVYFCATDHYWSREVYWGQGTQVTVSS” here?
A: low polyreactivity

From the nanobody polyreactivity screen of Harvey et al. (2022)
